Measured values published in the Immune Epitope Database (IEDB).
pIC50, pKd: −log10 of the molar value. One block for each sequence: values may come before it.

Columns and labels:
[1] = biological target: HLA-A*02:01; assay: IEDB peptide-MHC binding, purified MHC/direct/fluorescence; filed as Kd, often an IC50 or EC50 that approximates it; ≥ and ≤ were set here for values at or beyond the usual limits of such assays
[2] = biological target: HLA-A*69:01; assay: as above
[3] = biological target: HLA-B*08:01; assay: IEDB peptide-MHC binding, purified MHC/competitive/radioactivity; filed as Kd, often an IC50 or EC50 that approximates it; ≥ and ≤ were set here for values at or beyond the usual limits of such assays
[4] = biological target: HLA-A*01:01; assay: as above
[5] = biological target: HLA-A*30:02; assay: as above
[6] = biological target: HLA-A*23:01; assay: as above
[7] = biological target: HLA-A*24:02; assay: as above
[8] = biological target: HLA-A*02:01; assay: IEDB peptide-MHC binding, purified MHC/competitive/fluorescence; ≥ and ≤ were set here for values at or beyond the usual limits of such assays
[9] = biological target: HLA-A*26:01; assay: IEDB peptide-MHC binding, purified MHC/competitive/radioactivity; filed as Kd, often an IC50 or EC50 that approximates it; ≥ and ≤ were set here for values at or beyond the usual limits of such assays
[10] = biological target: HLA-A*30:01; assay: as above
[11] = biological target: HLA-A*33:01; assay: as above
[12] = biological target: HLA-A*68:01; assay: as above
[13] = biological target: HLA-A*01:01; assay: IEDB peptide-MHC binding, purified MHC/direct/fluorescence; filed as Kd, often an IC50 or EC50 that approximates it; ≥ and ≤ were set here for values at or beyond the usual limits of such assays
[14] = biological target: HLA-A*03:01; assay: IEDB peptide-MHC binding, purified MHC/competitive/radioactivity; filed as Kd, often an IC50 or EC50 that approximates it; ≥ and ≤ were set here for values at or beyond the usual limits of such assays; settings: source organism: Vaccinia virus WR
[15] = biological target: HLA-A*11:01; assay: as above
[16] = biological target: HLA-A*31:01; assay: as above; settings: source organism: Vaccinia virus WR
[17] = biological target: HLA-A*02:03; assay: as above
[18] = biological target: HLA-A*03:01; assay: IEDB peptide-MHC binding, purified MHC/direct/fluorescence; filed as Kd, often an IC50 or EC50 that approximates it; ≥ and ≤ were set here for values at or beyond the usual limits of such assays; settings: source organism: Influenza A virus (A/tiger/Thailand/CU-T4/04(H5N1))
[19] = biological target: HLA-A*11:01; assay: as above; settings: source organism: Influenza A virus (A/tiger/Thailand/CU-T4/04(H5N1))
[20] = source organism: Salmonella enterica
[21] = source organism: Dengue virus 3 Martinique/1243/1999
[22] = source organism: Dengue virus 4 Philippines/H241/1956
[23] = source organism: Dengue virus 1 Brazil/97-11/1997
[24] = source organism: Vaccinia virus WR
[25] = source organism: Zaire ebolavirus
[26] = source organism: Dengue virus 2 Jamaica/1409/1983
[27] = source organism: Brucella melitensis
[28] = source organism: Escherichia coli
[29] = source organism: Sudan ebolavirus
[30] = source organism: Treponema pallidum
[31] = source organism: Camelpox virus M-96

Sequence: AIDPRRIVA
pKd [1, 20]: ≤ 4.70
pKd [2, 20]: ≤ 4.70

Sequence: AIKRRLRTL
pKd [3, 21]: 8.01

Sequence: ALKRRLRTL
pKd [3, 22]: 8.72

Sequence: ASVKKDLISY
pKd [4, 23]: ≤ 4.42
pKd [5, 23]: 7.71

Sequence: AYQHALNEL
pKd [6, 22]: 5.63
pKd [7, 22]: 6.70

Sequence: CIKSHSVSL
pKd [3, 24]: 8.64

Sequence: DLVLFDLDE
pIC50 [8, 25]: ≤ 3.37

Sequence: DVKKDLISY
pKd [9, 26]: 6.43

Sequence: EKVDAIDGEY
pKd [9, 26]: 5.03
pKd [5, 26]: 7.59

Sequence: ELEPPFGDSY
pKd [4, 22]: 6.93
pKd [9, 22]: 5.88

Sequence: ENPYKTWAY
pKd [9, 21]: 5.53

Sequence: ETDLNQWMV
pKd [1, 27]: 6.79
pKd [2, 27]: 9.10

Sequence: ETLLLLGLM
pKd [9, 21]: 6.88

Sequence: EVDSFSLGI
pKd [4, 23]: 5.13

Sequence: EVKTCTWPK
pKd [10, 21]: 5.03
pKd [11, 21]: 8.07
pKd [12, 21]: 7.60

Sequence: EWITDFVGKT
pKd ([9]; source organism: Dengue virus 3 Singapore/8120/1995): ≤ 4.55

Sequence: FGTNETEYL
pIC50 [8, 25]: 4.56

Sequence: FIRLKLTKL
pKd [3, 24]: 6.87

Sequence: GIQRTVFFVL
pKd [3, 22]: 5.18

Sequence: GKLGLITNT
pIC50 [8, 25]: ≤ 3.64

pKd [1, 28]: 8.20
pKd [2, 28]: 6.01
Sequence: GLLASAPGI

Sequence: GLLKKFEFL
pKd [3, 24]: 7.33

Sequence: GTVLVQVKY
pKd [4, 23]: 5.91
pKd [5, 23]: 5.29

Sequence: GVFEGIAVL
pKd ([1]; source organism: Mycobacterium tuberculosis variant bovis): 7.81

Sequence: GVSTDIPSA
pIC50 [8, 29]: 5.68

Sequence: GWNDWQQVPF
pKd [6, 23]: 5.85
pKd [7, 23]: 5.76

Sequence: HFQRALIFIL
pKd [3, 26]: 5.76

Sequence: HLKHHKQCV
pKd [3, 24]: 8.35

Sequence: HLKNSAENK
pKd [10, 24]: 6.06

Sequence: IIGTNGNHM
pIC50 [8, 29]: ≤ 3.84

Sequence: IKRKLRTLIL
pKd [3, 23]: 5.24

pKd [13, 30]: 5.60
pKd [1, 30]: 4.76
pKd [2, 30]: 5.79
Sequence: IVDYVTAYG

Sequence: KALSKLISK
pKd [10, 24]: 7.15

Sequence: KIRPTRSVY
pKd [10, 24]: 8.14

Sequence: KLRPRWLDA
pKd [10, 23]: 7.65

Sequence: KNISGQSPA
pIC50 [8, 25]: ≤ 3.64

Sequence: KRTSFFLWV
pIC50 [8, 25]: ≤ 4.10

Sequence: KTHTLWSNG
pKd [10, 22]: 7.09

Sequence: KTLDISSFY
pKd [14]: 7.72
pKd [15, 24]: 8.19
pKd [10, 24]: 7.63
pKd [16]: 7.05
pKd [11, 24]: ≤ 4.38
pKd [12, 24]: 6.73

Sequence: KTSSGRMPV
pKd [10, 24]: 8.71

Sequence: KTTFSLHYA
pKd ([10]; source organism: Dengue virus 1 Singapore/S275/1990): 7.84

Sequence: KVRSNAALG
pKd [10, 26]: 8.61

Sequence: LAEAIFKLTY
pKd [4, 26]: 5.82

Sequence: LAIPPTAGIL
pKd [3, 23]: 5.37

Sequence: LARTAKVKN
pIC50 [8, 25]: ≤ 3.67

Sequence: LLKATLLAV
pKd [17, 23]: 10.52
pKd [3, 23]: 7.90

Sequence: LLMLCLHHA
pIC50 [8, 25]: 6.39

Sequence: LLPPELSET
pIC50 ([8]; source organism: Human alphaherpesvirus 1 strain 17): 5.31

Sequence: LLSKNTFYL
pKd [1, 31]: 7.81
pKd [2, 31]: 6.27

Sequence: LTEIASLPT
pKd [4, 22]: 5.83

Sequence: MDLEKRHVL
pKd [3, 26]: 7.17

Sequence: MFLITENKI
pKd ([6]; source organism: Dengue virus 1 Nauru/West Pac/1974): 6.79

Sequence: MLKRVRNRV
pKd [17, 21]: 7.84
pKd [3, 21]: 7.73

Sequence: MQKCYFSYK
pKd [10, 24]: 9.28

Sequence: MRKTDWLPM
pKd [3, 21]: 7.46

Sequence: MVLLTMKEK
pKd [15, 23]: 6.44
pKd [10, 23]: 5.56

Sequence: MWKQITNEL
pKd [6, 22]: 6.84

Sequence: NLTSTWVTY
pKd [4, 21]: 5.77

Sequence: NPDIVIYQY
pKd ([13]; source organism: Human immunodeficiency virus 1): ≤ 4.68

Sequence: NPGARNARL
pKd [3, 24]: 8.21

Sequence: NQNALVCGL
pIC50 [8, 29]: ≤ 3.91

Sequence: NSPVFNYNK
pKd [18]: ≤ 4.70
pKd [19]: 6.94

Sequence: NYKERMVTF
pKd [6, 22]: 7.00
pKd [7, 22]: 7.71

Sequence: QIDNFSLGV
pKd [4, 26]: 6.18

Sequence: QVSDVDKLV
pIC50 [8, 25]: ≤ 4.15
